# Experimental data as given in publication PMC9726900 (2022).
# Molecular target: 46w60 nucleosome (recombinant human histone octamer on Widom 601 DNA with 46-bp and 60-bp flanks), … (human, UniProt P0C0S8 1-130; P62807 1-126; P68431 1-136; P62805 1-103)
# Assay: MST
row,Binder,Kd [nM]
1,CHD4(1–1380) (domain or fragment) MASGLGSPSPCSAGSEEEDMDALLNNSLPPPHPENEEDPEEDLSETETPKLKKKKKPKKPRDPKIPKSKRQKKERMLLCRQLGDSSGEGPEFVEEEEEVALRSDSEGSDYTPGKKKKKKLGPKKEKKSKSKRKEEEEEEDDDDDSKEPKSSAQLLEDWGMEDIDHVFSEEDYRTLTNYKAFSQFVRPLIAAKNPKIAVSKMMMVLGAKWREFSTNNPFKGSSGASVAAAAAAAVAVVESMVTATEVAPPPPPVEVPIRKAKTKEGKGPNARRKPKGSPRVPDAKKPKPKKVAPLKIKLGGFGSKRKRSSSEDDDLDVESDFDDASINSYSVSDGSTSRSSRSRKKLRTTKKKKKGEEEVTAVDGYETDHQDYCEVCQQGGEIILCDTCPRAYHMVCLDPDMEKAPEGKWSCPHCEKEGIQWEAKEDNSEGEEILEEVGGDLEEEDDHHMEFCRVCKDGGELLCCDTCPSSYHIHCLNPPLPEIPNGEWLCPRCTCPALKGKVQKILIWKWGQPPSPTPVPRPPDADPNTPSPKPLEGRPERQFFVKWQGMSYWHCSWVSELQLELHCQVMFRNYQRKNDMDEPPSGDFGGDEEKSRKRKNKDPKFAEMEERFYRYGIKPEWMMIHRILNHSVDKKGHVHYLIKWRDLPYDQASWESEDVEIQDYDLFKQSYWNHRELMRGEEGRPGKKLKKVKLRKLERPPETPTVDPTVKYERQPEYLDATGGTLHPYQMEGLNWLRFSWAQGTDTILADEMGLGKTVQTAVFLYSLYKEGHSKGPFLVSAPLSTIINWEREFEMWAPDMYVVTYVGDKDSRAIIRENEFSFEDNAIRGGKKASRMKKEASVKFHVLLTSYELITIDMAILGSIDWACLIVDEAHRLKNNQSKFFRVLNGYSLQHKLLLTGTPLQNNLEELFHLLNFLTPERFHNLEGFLEEFADIAKEDQIKKLHDMLGPHMLRRLKADVFKNMPSKTELIVRVELSPMQKKYYKYILTRNFEALNARGGGNQVSLLNVVMDLKKCCNHPYLFPVAAMEAPKMPNGMYDGSALIRASGKLLLLQKMLKNLKEGGHRVLIFSQMTKMLDLLEDFLEHEGYKYERIDGGITGNMRQEAIDRFNAPGAQQFCFLLSTRAGGLGINLATADTVIIYDSDWNPHNDIQAFSRAHRIGQNKKVMIYRFVTRASVEERITQVAKKKMMLTHLVVRPGLGSKTGSMSKQELDDILKFGTEELFKDEATDGGGDNKEGEDSSVIHYDDKAIERLLDRNQDETEDTELQGMNEYLSSFKVAQYVVREEEMGEEEEVEREIIKQEESVDPDYWEKLLRHHYEQQQEDLARNLGKGKRIRKQVNYNDGSQEDRDWQDDQSDNQSDYSVASEEGDEDFDER,430
2,CHD4(1–1230) (domain or fragment) MASGLGSPSPCSAGSEEEDMDALLNNSLPPPHPENEEDPEEDLSETETPKLKKKKKPKKPRDPKIPKSKRQKKERMLLCRQLGDSSGEGPEFVEEEEEVALRSDSEGSDYTPGKKKKKKLGPKKEKKSKSKRKEEEEEEDDDDDSKEPKSSAQLLEDWGMEDIDHVFSEEDYRTLTNYKAFSQFVRPLIAAKNPKIAVSKMMMVLGAKWREFSTNNPFKGSSGASVAAAAAAAVAVVESMVTATEVAPPPPPVEVPIRKAKTKEGKGPNARRKPKGSPRVPDAKKPKPKKVAPLKIKLGGFGSKRKRSSSEDDDLDVESDFDDASINSYSVSDGSTSRSSRSRKKLRTTKKKKKGEEEVTAVDGYETDHQDYCEVCQQGGEIILCDTCPRAYHMVCLDPDMEKAPEGKWSCPHCEKEGIQWEAKEDNSEGEEILEEVGGDLEEEDDHHMEFCRVCKDGGELLCCDTCPSSYHIHCLNPPLPEIPNGEWLCPRCTCPALKGKVQKILIWKWGQPPSPTPVPRPPDADPNTPSPKPLEGRPERQFFVKWQGMSYWHCSWVSELQLELHCQVMFRNYQRKNDMDEPPSGDFGGDEEKSRKRKNKDPKFAEMEERFYRYGIKPEWMMIHRILNHSVDKKGHVHYLIKWRDLPYDQASWESEDVEIQDYDLFKQSYWNHRELMRGEEGRPGKKLKKVKLRKLERPPETPTVDPTVKYERQPEYLDATGGTLHPYQMEGLNWLRFSWAQGTDTILADEMGLGKTVQTAVFLYSLYKEGHSKGPFLVSAPLSTIINWEREFEMWAPDMYVVTYVGDKDSRAIIRENEFSFEDNAIRGGKKASRMKKEASVKFHVLLTSYELITIDMAILGSIDWACLIVDEAHRLKNNQSKFFRVLNGYSLQHKLLLTGTPLQNNLEELFHLLNFLTPERFHNLEGFLEEFADIAKEDQIKKLHDMLGPHMLRRLKADVFKNMPSKTELIVRVELSPMQKKYYKYILTRNFEALNARGGGNQVSLLNVVMDLKKCCNHPYLFPVAAMEAPKMPNGMYDGSALIRASGKLLLLQKMLKNLKEGGHRVLIFSQMTKMLDLLEDFLEHEGYKYERIDGGITGNMRQEAIDRFNAPGAQQFCFLLSTRAGGLGINLATADTVIIYDSDWNPHNDIQAFSRAHRIGQNKKVMIYRFVTRASVEERITQVAKKKMMLTHLVVRPGLGSKTGSMSKQELDDILKFGTEELFKDE,250

# Binders with a lower Kd, results first:
row,Kd [nM],Binder
1,150,CHD4(1–1810) (domain or fragment) MASGLGSPSPCSAGSEEEDMDALLNNSLPPPHPENEEDPEEDLSETETPKLKKKKKPKKPRDPKIPKSKRQKKERMLLCRQLGDSSGEGPEFVEEEEEVALRSDSEGSDYTPGKKKKKKLGPKKEKKSKSKRKEEEEEEDDDDDSKEPKSSAQLLEDWGMEDIDHVFSEEDYRTLTNYKAFSQFVRPLIAAKNPKIAVSKMMMVLGAKWREFSTNNPFKGSSGASVAAAAAAAVAVVESMVTATEVAPPPPPVEVPIRKAKTKEGKGPNARRKPKGSPRVPDAKKPKPKKVAPLKIKLGGFGSKRKRSSSEDDDLDVESDFDDASINSYSVSDGSTSRSSRSRKKLRTTKKKKKGEEEVTAVDGYETDHQDYCEVCQQGGEIILCDTCPRAYHMVCLDPDMEKAPEGKWSCPHCEKEGIQWEAKEDNSEGEEILEEVGGDLEEEDDHHMEFCRVCKDGGELLCCDTCPSSYHIHCLNPPLPEIPNGEWLCPRCTCPALKGKVQKILIWKWGQPPSPTPVPRPPDADPNTPSPKPLEGRPERQFFVKWQGMSYWHCSWVSELQLELHCQVMFRNYQRKNDMDEPPSGDFGGDEEKSRKRKNKDPKFAEMEERFYRYGIKPEWMMIHRILNHSVDKKGHVHYLIKWRDLPYDQASWESEDVEIQDYDLFKQSYWNHRELMRGEEGRPGKKLKKVKLRKLERPPETPTVDPTVKYERQPEYLDATGGTLHPYQMEGLNWLRFSWAQGTDTILADEMGLGKTVQTAVFLYSLYKEGHSKGPFLVSAPLSTIINWEREFEMWAPDMYVVTYVGDKDSRAIIRENEFSFEDNAIRGGKKASRMKKEASVKFHVLLTSYELITIDMAILGSIDWACLIVDEAHRLKNNQSKFFRVLNGYSLQHKLLLTGTPLQNNLEELFHLLNFLTPERFHNLEGFLEEFADIAKEDQIKKLHDMLGPHMLRRLKADVFKNMPSKTELIVRVELSPMQKKYYKYILTRNFEALNARGGGNQVSLLNVVMDLKKCCNHPYLFPVAAMEAPKMPNGMYDGSALIRASGKLLLLQKMLKNLKEGGHRVLIFSQMTKMLDLLEDFLEHEGYKYERIDGGITGNMRQEAIDRFNAPGAQQFCFLLSTRAGGLGINLATADTVIIYDSDWNPHNDIQAFSRAHRIGQNKKVMIYRFVTRASVEERITQVAKKKMMLTHLVVRPGLGSKTGSMSKQELDDILKFGTEELFKDEATDGGGDNKEGEDSSVIHYDDKAIERLLDRNQDETEDTELQGMNEYLSSFKVAQYVVREEEMGEEEEVEREIIKQEESVDPDYWEKLLRHHYEQQQEDLARNLGKGKRIRKQVNYNDGSQEDRDWQDDQSDNQSDYSVASEEGDEDFDERSEAPRRPSRKGLRNDKDKPLPPLLARVGGNIEVLGFNARQRKAFLNAIMRYGMPPQDAFTTQWLVRDLRGKSEKEFKAYVSLFMRHLCEPGADGAETFADGVPREGLSRQHVLTRIGVMSLIRKKVQEFEHVNGRWSMPELAEVEENKKMSQPGSPSPKTPTPSTPGDTQPNTPAPVPPAEDGIKIEENSLKEEESIEGEKEVKSTAPETAIECTQAPAPASEDEKVVVEPPEGEEKVEKAEVKERTEEPMETEPKGAADVEKVEEKSAIDLTPIVVEDKEEKKEEEEKKEVMLQNGETPKDLNDEKQKKNIKQRFMFNIADGGFTELHSLWQNEERAATVTKKTYEIWHRRHDYWLLAGIINHGYARWQDIQNDPRYAILNEPFKGEMNRGNFLEIKNKFLARRFKLLEQALVIEEQLRRAAYLNMSED
2,210,CHD4(1–1540) (domain or fragment) MASGLGSPSPCSAGSEEEDMDALLNNSLPPPHPENEEDPEEDLSETETPKLKKKKKPKKPRDPKIPKSKRQKKERMLLCRQLGDSSGEGPEFVEEEEEVALRSDSEGSDYTPGKKKKKKLGPKKEKKSKSKRKEEEEEEDDDDDSKEPKSSAQLLEDWGMEDIDHVFSEEDYRTLTNYKAFSQFVRPLIAAKNPKIAVSKMMMVLGAKWREFSTNNPFKGSSGASVAAAAAAAVAVVESMVTATEVAPPPPPVEVPIRKAKTKEGKGPNARRKPKGSPRVPDAKKPKPKKVAPLKIKLGGFGSKRKRSSSEDDDLDVESDFDDASINSYSVSDGSTSRSSRSRKKLRTTKKKKKGEEEVTAVDGYETDHQDYCEVCQQGGEIILCDTCPRAYHMVCLDPDMEKAPEGKWSCPHCEKEGIQWEAKEDNSEGEEILEEVGGDLEEEDDHHMEFCRVCKDGGELLCCDTCPSSYHIHCLNPPLPEIPNGEWLCPRCTCPALKGKVQKILIWKWGQPPSPTPVPRPPDADPNTPSPKPLEGRPERQFFVKWQGMSYWHCSWVSELQLELHCQVMFRNYQRKNDMDEPPSGDFGGDEEKSRKRKNKDPKFAEMEERFYRYGIKPEWMMIHRILNHSVDKKGHVHYLIKWRDLPYDQASWESEDVEIQDYDLFKQSYWNHRELMRGEEGRPGKKLKKVKLRKLERPPETPTVDPTVKYERQPEYLDATGGTLHPYQMEGLNWLRFSWAQGTDTILADEMGLGKTVQTAVFLYSLYKEGHSKGPFLVSAPLSTIINWEREFEMWAPDMYVVTYVGDKDSRAIIRENEFSFEDNAIRGGKKASRMKKEASVKFHVLLTSYELITIDMAILGSIDWACLIVDEAHRLKNNQSKFFRVLNGYSLQHKLLLTGTPLQNNLEELFHLLNFLTPERFHNLEGFLEEFADIAKEDQIKKLHDMLGPHMLRRLKADVFKNMPSKTELIVRVELSPMQKKYYKYILTRNFEALNARGGGNQVSLLNVVMDLKKCCNHPYLFPVAAMEAPKMPNGMYDGSALIRASGKLLLLQKMLKNLKEGGHRVLIFSQMTKMLDLLEDFLEHEGYKYERIDGGITGNMRQEAIDRFNAPGAQQFCFLLSTRAGGLGINLATADTVIIYDSDWNPHNDIQAFSRAHRIGQNKKVMIYRFVTRASVEERITQVAKKKMMLTHLVVRPGLGSKTGSMSKQELDDILKFGTEELFKDEATDGGGDNKEGEDSSVIHYDDKAIERLLDRNQDETEDTELQGMNEYLSSFKVAQYVVREEEMGEEEEVEREIIKQEESVDPDYWEKLLRHHYEQQQEDLARNLGKGKRIRKQVNYNDGSQEDRDWQDDQSDNQSDYSVASEEGDEDFDERSEAPRRPSRKGLRNDKDKPLPPLLARVGGNIEVLGFNARQRKAFLNAIMRYGMPPQDAFTTQWLVRDLRGKSEKEFKAYVSLFMRHLCEPGADGAETFADGVPREGLSRQHVLTRIGVMSLIRKKVQEFEHVNGRWSMPELAEVEENKKMSQPGSPSPKT
